The text below walks through data of patent publication US20210198377A1 (XDCEXPLORER SHANGHAI, published 2021).

For test [1], the target named is T1, biotinylated recombinant TPBG protein (Homo sapiens (Human), UniProt Q13641 32-355, Biotinylated; the number and positions of the biotin labels are not stated and the letters do not carry them.).
T1 sequence: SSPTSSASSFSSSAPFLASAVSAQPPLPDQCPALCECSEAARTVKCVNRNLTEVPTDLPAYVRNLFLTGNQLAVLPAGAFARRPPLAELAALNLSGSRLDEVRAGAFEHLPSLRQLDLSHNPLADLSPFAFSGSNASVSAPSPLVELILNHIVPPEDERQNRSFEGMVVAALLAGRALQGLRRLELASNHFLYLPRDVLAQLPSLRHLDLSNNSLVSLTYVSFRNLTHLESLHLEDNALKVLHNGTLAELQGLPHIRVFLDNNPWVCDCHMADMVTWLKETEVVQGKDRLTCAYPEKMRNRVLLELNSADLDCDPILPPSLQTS
Briefly: competitive ELISA; row antibody 5 ug/mL; competitor: coated 12B12C7C3. The procedure: The purified antibodies to be tested were diluted to 1 μg/mL using PBS, and coated with high-adsorption of 96-well microplates at […]. After overnight coating at 4[…], 250 μL of blocking buffer (PBS containing 0.01% (v/v) Tween20 and 1% (w/w) BSA) was added to block coating at room temperature for 1 h, and 0.05 μg/mL of biotinylated recombinant TPBG protein was added to each well. Meanwhile, 5 μg/mL final concentration of competitive antibodies, i.e. the purified antibodies obtained from Embodiment 2 with the clone number of 12B12C7C3, 5G4H10G5, 37H9C5G2, 39A11G5F2, 52C9E9F6, 28D4E6A9, 36A10D8B12, 99E12C7H1, 103E2E9C2 and 106D5G3D10 were added and incubated at 25-37° C. for 1-2 h. The plates were washed three times with plate-washing buffer (PBS containing 0.01% (v/v) Tween20) and HRP (horseradish peroxidase)-labeled streptavidin (purchased from Sigma) was added. After incubating at 37° C. for 0.5 h, the plates were washed three times with plate-washing buffer (PBS containing 0.01% (v/v) Tween20), and 100 μL of TMB substrate was added to each well and the plates were further incubated at room temperature for 30 min prior to adding 100 μL of stop buffer (1.0N HCl) to each well. A₄₅₀ₙₘ values were read using an ELISA microplate reader (SpectraMax 384plus purchased from Molecular Device) and results were shown in FIG. 6. The higher the values of the competition rate, the closer the antigen surface of the two antibodies are.
For orientation: An ELISA detects its analyte on a solid surface through an enzyme-linked reagent.

In test [2] the target is T2, human TPBG-hFc (human, UniProt Q13641 32-355).
T2 construct: also called immunogen A; hFc tagged TPBG protein; not shown: The human IgG Fc fragment of the pCpC vector (Invitrogen V044-50) and any linker to it
T2 sequence: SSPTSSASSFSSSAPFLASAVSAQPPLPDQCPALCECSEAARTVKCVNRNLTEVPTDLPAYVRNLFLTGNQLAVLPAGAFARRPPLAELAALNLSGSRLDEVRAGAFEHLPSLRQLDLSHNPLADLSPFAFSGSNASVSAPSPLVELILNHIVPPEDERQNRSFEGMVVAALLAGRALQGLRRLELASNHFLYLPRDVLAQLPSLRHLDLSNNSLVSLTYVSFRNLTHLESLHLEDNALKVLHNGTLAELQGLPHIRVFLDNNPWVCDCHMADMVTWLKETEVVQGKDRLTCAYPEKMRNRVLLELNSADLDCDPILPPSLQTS
Briefly: ELISA, coated human TPBG-hFc 1.0 ug/mL; antibody 2 nM. The procedure: (§1) The purified immunogen A (as for its method of preparation please refer to step 1 in Example 1) diluting with PBS to a final concentration of 1.0 μg/mL was aliquoted into a 96-well ELISA plate at 100 μL per well, and sealed with a parafilm and incubated at 4° C. overnight. The plate was washed twice with plate washing buffer (PBS containing 0.01% (v/v) Tween 20), and blocked with blocking buffer (PBS containing 0.01% (v/v) Tween 20 and 1% (w/w) BSA) at room temperature for 2 h. The blocking buffer was discarded, and 100 μL per well of the purified antibody obtained from Embodiment 2 was added. After incubating at 37° C. for 2 h, the plate was washed for three times with plate washing buffer (PBS containing 0.01% (v/v) Tween 20). HRP (horseradish peroxidase)-labeled secondary antibody (purchased from Sigma) was added and incubated at 37° C. for 2 h, and the plate was washed for three times using plate washing buffer (PBS containing 0.01% (v/v) Tween 20). 100 μL of TMB substrate was aliquoted into each well, incubated at room temperature for 30 min, and 100 μL of stop buffer (1.0N HCl) per well was subsequently added. A₄₅₀ₙₘ values were read using the ELISA plate reader (SpectraMax 384plus purchased from Molecular Device), and the results were shown in FIG. 6 and table 6. […] In Table 6 the IgG control herein is a mice IgG control, the data in the Table are OD₄₅₀ₘₙ values, and Blank means the OD₄₅₀ₘₙ value when there is only PBS buffer in the plate.

Test [3] has as its target T2, human TPBG-hFc. Briefly: ELISA, coated human TPBG-hFc 1.0 ug/mL; antibody 0.002 nM. The protocol: as §1
The target in test [4] is T2, human TPBG-hFc. In words: ELISA, coated human TPBG-hFc 1.0 ug/mL; antibody 200 nM. The protocol:
as §1

B1: 5G4H10G5 (antibody, V domains shown)
VH: EVQLVESGGDLVQPGGSLKLFCAASGFTFSTYGLSWVRQTPDKRLELVATITNNDGSAYYPDSVKGRFTISRDKAKNTLFLQMTSLKSEDTAMYYCARETGFGSSYLFDYWGQGTLVTVSA
VL: NIVMTQTPKFLLVSAGDRVTITCKASQSVSNDVAWYQQKPGQSPKLLIYFATNRYTGVPNRFTGSGYGTEFTFTISSVQAEDLAVYFCQQDYSSPTFGGGTKLEIK
notes: Mouse hybridoma antibody purified from culture supernatant; also called TPBG antibody; lead antibody
As to B1, in test [1], the competition rate was determined as 9%. Moreover, the OD450nm with human TPBG-hFc [2] was found to be 2.68 OD450nm; in the test with human TPBG-hFc [3] it was 0.1 OD450nm; with human TPBG-hFc [4], 2.72 OD450nm.

B2: 36A10D8B12 (antibody, V domains shown)
VH: DVQLQESGPGMVKPSQSLSLTCTVTGYSITSGYDWHWIRHFPGNKLEWMGYISYSGNTNYNPSLKSRISITHNTSKNHFFLRLNSVTTEDTATYYCARGYGNWDAMDYWGQGTSVTVSS
VL: DIVMTQSQKFMSTSVGDRVSVTCKASQIVDTNVAWYQQKPGQSPKALISSASYRYSGVPDRFTGSGSGTDFTLTISNVQSEDLAEYFCQQYNSYPLTFGAGTKLELT
notes: as for B1
B2: in test [1], the competition rate amounted to 21%. The figures for the OD450nm with human TPBG-hFc [2], in the test with human TPBG-hFc [3] and in the test with human TPBG-hFc [4] were 3.06 OD450nm, 0.18 OD450nm and 2.51 OD450nm, respectively.

B3: 39A11G5F2 (antibody, V domains shown)
VH: QVQLQQSGAELMKPGASMRLSCKATGYTFTGYWLEWIKRRPGHGLEWIGEILPGRGSTNYNEKFKGKATFTAETSSNTAYMQLTSLTTEDSAIYYCARGGRDFDNWGQGTTLTVSS
VL: DIQMTQSTSSLSASLGDRVTISCSASQGINNHLNWYQQKPDGTVKLLIYYTSSLHSGVPSRFSGSGSGTDYSLTISNLEPEDIAIYYCQQFSKLPYTFGGGTKVEMK
notes: as for B1
In the case of B3, the competition rate in test [1] was 9%. The OD450nm with human TPBG-hFc [2] was found to be 2.43 OD450nm; with human TPBG-hFc [3], 0.11 OD450nm; with human TPBG-hFc [4], 2.55 OD450nm.

B4: 52C9E9F6 (antibody, V domains shown)
VH: QVQLQQSGAELMKPGASVKLSCKATGYTFTGYWIEWIKQRPGHGLEWIGEILPGRGSTDYNEKFKGKATFTADTSSNTAYMQLSSLTTEDSAIYYCTRGRLDFTYWGQGTLVTVSA
VL: DIQMTQTTSSLSASLGDRVTISCSASQGIRNYLNWYQQKPDGTVKLLIYYTSSLHSGVPSRFSGSGSGTDYSLTISNLEPEDIATYYCQQYSKVPWTFGGGTKLEIK
notes: as for B1
Regarding B4, in test [1], the competition rate amounted to 27%. For the same molecule, the results for the OD450nm with human TPBG-hFc [2], in the test with human TPBG-hFc [3] and with human TPBG-hFc [4] were 2.68 OD450nm, 0.12 OD450nm and 2.65 OD450nm, respectively.

B5: 28D4E6A9 (antibody, V domains shown)
VH: DVQLVESGGGLVRPGGSLKLSCAASGFTFSNYVMSWARQSPEKRLEWVAEISTGGSHTYYSDTVTGRFTISRDNAKKALYLEMSSLRSEDTAIYYCIMFYYGSSYSMDYWGQGTSVTVSS
VL: DIQMTQSTSSLSASLGDRITISCRASQDIRNYLNWYQQKPDGTVKLLIYHTSRLHSGVPSRFSGSGSGTDYSLTISNLEQEDIATYFCQQGDTLPLTFGAGTRLELK
notes: as for B1
Take B5: the competition rate in test [1] was 24%. In addition, the OD450nm turned out to be 2.64 OD450nm in the test with human TPBG-hFc [2], 0.14 OD450nm in the test with human TPBG-hFc [3] and 2.6 OD450nm with human TPBG-hFc [4].

B6: 106D5G3D10 (antibody, V domains shown)
VH: EVQLVESGGGLVKPGGSLKLSCAASGFTFSDYGMHWVRQAPEKGLEWVGYISSGTYVVYYADTVKGRFTISRDNAKNTLFLQMTSLRSEDTAIYYCSTYGSNPFDYWGQGTTLTVSS
VL: QLVLTQSPAIMSASPGEKVTITCSATSSVSSMHWFQQKPVTSPKLWIYSTSNLASGVPTRFSGSGSGTSYSLTISRMEAEDAATYYCQQRSGYPPIFTFGSGTKLEIK
notes: as for B1
For the molecule B6, the competition rate in test [1] amounted to 95%. For the same molecule, the OD450nm is 2.81 OD450nm with human TPBG-hFc [2], 0.16 OD450nm with human TPBG-hFc [3] and 2.88 OD450nm with human TPBG-hFc [4].

B7: 103E2E9C2 (antibody, V domains shown)
VH: EVQLQQSGPVLVKPGASVKMSCEASGYSFIDYYMSWVKQSRGRSLEWIGVFNPYSGEIIYNQKFKGKATLTVDKSSSTAYMELSSLTSEDSGVYSCARLRISYYAIDYWGQGTSVAVSS
VL: ENVLTQSPAIMSASPGEKVTMTCRATSSVSSGHFHWYQQKSGASPKVWIYSTSNLASGVPARFSGSGSGTSFSLTISSVEAEDVATYFCQQYSGYPLTFGGGTKLEIK
notes: as for B1
Take B7: the competition rate in test [1] amounted to 0%. For the same molecule, the OD450nm is 2.64 OD450nm with human TPBG-hFc [2], 0.14 OD450nm with human TPBG-hFc [3] and 2.6 OD450nm in the test with human TPBG-hFc [4].

B8: 37H9C5G2 (antibody, V domains shown)
VH: QVQLQQSDAELVRPGASVKMSCKVSGYTFTDHTIHWMKQRPEQGLEWIGYIYPRDGSGTYNEKFKGKATLTADKSSSTAYMQLNSLTSEDSAVYFCARDGSSHYWYFDVWGTGTTVTVSS
VL: DIQMTQSPASLSASVGETVTITCRASEIIYNYLAWYQQKQGKSPQLLVYNAKTLAEGVPSRFSGSYSGTQFSLNINSLQSEDFGIYYCQHHHDTPLTFGAGTKLDLK
notes: as for B1
Turning to B8, the competition rate in test [1] was determined as 6%. The OD450nm is 2.52 OD450nm with human TPBG-hFc [2], 0.11 OD450nm with human TPBG-hFc [3] and 2.61 OD450nm with human TPBG-hFc [4].

B9: 99E12C7H1 (antibody, V domains shown)
VH: QIQLVQSGPELKKPGETVKISCKPSGYTFTAYGLSWVKQAPGQGFQWMGWINTYSGVPTYTDDFKGRFAFSLETSAGTASLQITNLKNEDTATYFCARSSIPPFEYWGPGTTLTVSS
VL: SFVMTQSPKFLLVSVGDRVTITCKASQSVSNDVAWYQQKPGQPPRVLIYFASNRYTGVPDRFTGSGYGTDFTFTISTVQAEDLALYFCQQDYSSPWTFGGGTKLEIK
notes: as for B1
Consider B9, for which, in test [1], the competition rate was found to be 11%. Besides, the OD450nm with human TPBG-hFc [2] came to 2.93 OD450nm; with human TPBG-hFc [3] it was 0.21 OD450nm; in the test with human TPBG-hFc [4] it was 2.93 OD450nm.

B10: 12B12C7C3 (antibody, V domains shown)
VH: DVQLVESGGGLVQPGGSRKLSCAASGFTFSNFGMHWVRQAPEKGLEWVAYISSGSTSFYYADTVKGRFTISRDNPKNTLFLQMTSLRSEDTAMYYCSRTNSLLRGFFDAWGAGTTVTVSS
VL: DIVLTQSPASLAVSLGQRATISCRASQSVSSSSYTYLHWYQQKPGQPPKLLIKSASNLESGVPARFSGTGSGTDFTLNIHPVEEEDTATYYCQHSWEIPLTFGAGTKLELK
notes: as for B1
On to B10, for which, in test [1], the competition rate turned out to be 97%. Also, the OD450nm with human TPBG-hFc [2] came to 2.84 OD450nm; in the test with human TPBG-hFc [3] it was 0.13 OD450nm; with human TPBG-hFc [4], 2.82 OD450nm.
